Experimental data published in patent US20110294738A1, “PTHR1 RECEPTOR COMPOUNDS” (priority 2008, published 2011).
Read-outs that look alike come from different tables or passages of the source. Peptide text beside a SMILES is read from it. * marks the point of attachment. Palmitoyl = CCCCCCCCCCCCCCCC(=O)*

T1: PTHR1 (Rattus norvegicus, UniProt P25961)
T1 sequence (P25961 27-591): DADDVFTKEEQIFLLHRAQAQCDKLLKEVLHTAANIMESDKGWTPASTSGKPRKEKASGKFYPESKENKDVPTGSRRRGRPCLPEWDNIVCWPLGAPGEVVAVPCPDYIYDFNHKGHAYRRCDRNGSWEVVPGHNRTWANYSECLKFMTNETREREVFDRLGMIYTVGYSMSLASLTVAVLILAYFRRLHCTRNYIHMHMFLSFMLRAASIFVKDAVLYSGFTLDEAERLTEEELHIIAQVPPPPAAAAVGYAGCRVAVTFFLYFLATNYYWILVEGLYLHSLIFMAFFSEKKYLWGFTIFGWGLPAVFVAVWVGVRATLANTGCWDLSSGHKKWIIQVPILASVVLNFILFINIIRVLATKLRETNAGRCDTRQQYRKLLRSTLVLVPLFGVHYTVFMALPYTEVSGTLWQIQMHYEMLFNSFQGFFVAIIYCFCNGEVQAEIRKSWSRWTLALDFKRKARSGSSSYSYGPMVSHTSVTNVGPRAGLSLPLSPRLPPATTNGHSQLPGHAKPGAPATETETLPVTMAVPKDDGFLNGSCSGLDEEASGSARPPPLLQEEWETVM

B1: Compound 66 (peptide)
peptide: Palmitoyl-RSDTRQQYRKLLKS-NH2
SMILES: CCCCCCCCCCCCCCCC(=O)N[C@@H](CCCNC(=N)N)C(=O)N[C@@H](CO)C(=O)N[C@@H](CC(=O)O)C(=O)N[C@H](C(=O)N[C@@H](CCCNC(=N)N)C(=O)N[C@@H](CCC(N)=O)C(=O)N[C@@H](CCC(N)=O)C(=O)N[C@@H](Cc1ccc(O)cc1)C(=O)N[C@@H](CCCNC(=N)N)C(=O)N[C@@H](CCCCN)C(=O)N[C@@H](CC(C)C)C(=O)N[C@@H](CC(C)C)C(=O)N[C@@H](CCCCN)C(=O)N[C@@H](CO)C(N)=O)[C@@H](C)O
B2: Compound 65 (peptide)
peptide: Palmitoyl-AGRSDTRQQYRKLLKS-NH2
SMILES: CCCCCCCCCCCCCCCC(=O)N[C@@H](C)C(=O)NCC(=O)N[C@@H](CCCNC(=N)N)C(=O)N[C@@H](CO)C(=O)N[C@@H](CC(=O)O)C(=O)N[C@H](C(=O)N[C@@H](CCCNC(=N)N)C(=O)N[C@@H](CCC(N)=O)C(=O)N[C@@H](CCC(N)=O)C(=O)N[C@@H](Cc1ccc(O)cc1)C(=O)N[C@@H](CCCNC(=N)N)C(=O)N[C@@H](CCCCN)C(=O)N[C@@H](CC(C)C)C(=O)N[C@@H](CC(C)C)C(=O)N[C@@H](CCCCN)C(=O)N[C@@H](CO)C(N)=O)[C@@H](C)O
B3: Compound 67 (peptide)
peptide: Palmitoyl-DTRQQYRKLLKS-NH2
SMILES: CCCCCCCCCCCCCCCC(=O)N[C@@H](CC(=O)O)C(=O)N[C@H](C(=O)N[C@@H](CCCNC(=N)N)C(=O)N[C@@H](CCC(N)=O)C(=O)N[C@@H](CCC(N)=O)C(=O)N[C@@H](Cc1ccc(O)cc1)C(=O)N[C@@H](CCCNC(=N)N)C(=O)N[C@@H](CCCCN)C(=O)N[C@@H](CC(C)C)C(=O)N[C@@H](CC(C)C)C(=O)N[C@@H](CCCCN)C(=O)N[C@@H](CO)C(N)=O)[C@@H](C)O
B4: Compound 69 (peptide)
peptide: Palmitoyl-TNAGRSDTRQQYRK-NH2
SMILES: CCCCCCCCCCCCCCCC(=O)N[C@H](C(=O)N[C@@H](CC(N)=O)C(=O)N[C@@H](C)C(=O)NCC(=O)N[C@@H](CCCNC(=N)N)C(=O)N[C@@H](CO)C(=O)N[C@@H](CC(=O)O)C(=O)N[C@H](C(=O)N[C@@H](CCCNC(=N)N)C(=O)N[C@@H](CCC(N)=O)C(=O)N[C@@H](CCC(N)=O)C(=O)N[C@@H](Cc1ccc(O)cc1)C(=O)N[C@@H](CCCNC(=N)N)C(=O)N[C@@H](CCCCN)C(N)=O)[C@@H](C)O)[C@@H](C)O
B5: Compound 71 (peptide)
peptide: Palmitoyl-SGRVLATKLR-NH2
SMILES: CCCCCCCCCCCCCCCC(=O)N[C@@H](CO)C(=O)NCC(=O)N[C@@H](CCCNC(=N)N)C(=O)N[C@H](C(=O)N[C@@H](CC(C)C)C(=O)N[C@@H](C)C(=O)N[C@H](C(=O)N[C@@H](CCCCN)C(=O)N[C@@H](CC(C)C)C(=O)N[C@@H](CCCNC(=N)N)C(N)=O)[C@@H](C)O)C(C)C
B6: Compound 68 (peptide)
peptide: Palmitoyl-TNAGRSDTRQQYRKLL-NH2
SMILES: CCCCCCCCCCCCCCCC(=O)N[C@H](C(=O)N[C@@H](CC(N)=O)C(=O)N[C@@H](C)C(=O)NCC(=O)N[C@@H](CCCNC(=N)N)C(=O)N[C@@H](CO)C(=O)N[C@@H](CC(=O)O)C(=O)N[C@H](C(=O)N[C@@H](CCCNC(=N)N)C(=O)N[C@@H](CCC(N)=O)C(=O)N[C@@H](CCC(N)=O)C(=O)N[C@@H](Cc1ccc(O)cc1)C(=O)N[C@@H](CCCNC(=N)N)C(=O)N[C@@H](CCCCN)C(=O)N[C@@H](CC(C)C)C(=O)N[C@@H](CC(C)C)C(N)=O)[C@@H](C)O)[C@@H](C)O
B7: Compound 70 (peptide)
peptide: Palmitoyl-TNAGRSDTRQQYRF-NH2
SMILES: CCCCCCCCCCCCCCCC(=O)N[C@H](C(=O)N[C@@H](CC(N)=O)C(=O)N[C@@H](C)C(=O)NCC(=O)N[C@@H](CCCNC(=N)N)C(=O)N[C@@H](CO)C(=O)N[C@@H](CC(=O)O)C(=O)N[C@H](C(=O)N[C@@H](CCCNC(=N)N)C(=O)N[C@@H](CCC(N)=O)C(=O)N[C@@H](CCC(N)=O)C(=O)N[C@@H](Cc1ccc(O)cc1)C(=O)N[C@@H](CCCNC(=N)N)C(=O)N[C@@H](Cc1ccccc1)C(N)=O)[C@@H](C)O)[C@@H](C)O

Tests used:
PTHR1 [1] = molecular target: T1, PTHR1; experiment: cAMP screening assay using DiscoveRX XS+ kit (PTH1-34 dose-response in UMR-106 cells); conditions: compound 10 μM; for Inhibition of Maximal Response: PTH1-34 stimulated maximal response, 1−(Emax compound/Emax vehicle); for Fold Shift of EC50: PTH1-34 EC50 compound/EC50 vehicle
Experimental: (§1) cAMP Screening Assay Using DiscoveRX XS+ Kit
(§2) UMR-106 cells were seeded in 96-well white plates at 10K cells/well in growth media. Twenty four hours after seeding, cell media was removed by gentle dumping and replaced with 30 μL of compounds diluted to 10 μM final concentration in assay buffer (Hank's balanced Salt Solution, 20 mM HEPES, pH 7.4, 0.1 μM IBMX). After 30 minute incubation at room temperature, 10 μL human PTH1-34 serial diluted in assay buffer was added. Cells were incubated at 37° C. for 15 minutes before 10 μL of water soluble analog of forskolin, NKH477 was added to final concentration of 10 μM followed by 60 minute incubation at room temperature. DiscoveRX cAMP XS+ kit reagents were then added following manufacture protocol. Briefly, 10 μL of antibody was added to each well followed by 40 μL of ED/Lysis buffer mix (1/5/19 for Galacon-star/Emerald/Lysis buffer and then 1:1 with ED). After 1 hour incubation, 40 μL of EA reagent was added followed by at least 1 hour incubation before the plates were read on TopCount reader. Data was analyzed using GraphPad Prism. PTH1-34 dose-response curves were fitted using non-linear curve fit (Y=Bottom+(Top−Bottom)/(1+10̂((Log EC50−X)*HillSlope))). PTH1-34 EC50 values calculated in the presence of compounds were compared to that in the presence of vehicle control. The ratio of the EC50 values were calculated and presented as fold shift (EC50 compound/EC50 vehicle). The effect of compounds on PTH1-34 stimulated maximal response was also assessed and was presented percent inhibition (1−(Emax compound/Emax vehicle)).

PTHR1 [2] = molecular target: T1, PTHR1
Experimental: as §1, §2

PTHR1 receptor, sequence (P25961 whole entry): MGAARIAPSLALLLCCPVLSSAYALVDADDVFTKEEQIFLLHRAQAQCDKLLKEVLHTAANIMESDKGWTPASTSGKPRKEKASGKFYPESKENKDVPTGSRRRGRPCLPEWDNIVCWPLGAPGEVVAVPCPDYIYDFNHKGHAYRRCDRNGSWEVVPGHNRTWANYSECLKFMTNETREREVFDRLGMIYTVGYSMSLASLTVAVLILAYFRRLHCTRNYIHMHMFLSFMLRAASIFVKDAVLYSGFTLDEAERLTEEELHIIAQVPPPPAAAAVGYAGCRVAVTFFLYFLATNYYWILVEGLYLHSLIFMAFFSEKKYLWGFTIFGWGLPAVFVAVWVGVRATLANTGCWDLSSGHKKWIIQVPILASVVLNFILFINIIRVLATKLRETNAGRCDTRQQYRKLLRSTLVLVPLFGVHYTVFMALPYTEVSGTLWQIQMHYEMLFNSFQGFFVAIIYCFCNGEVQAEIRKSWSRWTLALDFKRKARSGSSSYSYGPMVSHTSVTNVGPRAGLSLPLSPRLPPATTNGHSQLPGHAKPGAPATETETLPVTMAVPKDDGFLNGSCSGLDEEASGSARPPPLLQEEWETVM

Row | Molecule | Inhibition of Maximal Response (PTHR1 [1]) [%] | Fold Shift of EC50 (PTHR1 [2]) | Fold Shift of EC50 (PTHR1 [1]) | Fold Shift of EC50 (PTHR1 receptor) [fold] | Inhibition of Maximal Response (PTHR1 receptor)
1 | AGRSDTRQQYRKLLFA [Compound 94] | −24.40 | 18.7 |  |  | 
2 | RETNAGRSDTRQQYRK [Compound 60] | 4.30 | 3.3 |  |  | 
3 | TNAGRSDTAQQYRKLL [Compound 78] | −29.20 |  | 12.7 |  | 
4 | CCCCCCCCCCCCCCCC(=O)N[C@@H](Cc1c[nH]c2ccccc12)C(=O)N[C@H](C(=O)N[C@@H](CC(C)C)C(=O)N[C@@H](C)C(=O)N[C@@H](CC(C)C)C(=O)N[C@@H](CC(=O)O)C(=O)NC(Cc1ccccc1)C(=O)N[C@@H](CCCCN)C(=O)N[C@@H](CCCNC(=N)N)C(=O)N[C@@H](CCCCN)C(=O)N[C@@H](C)C(=O)N[C@@H](CCCNC(=N)N)C(N)=O)[C@@H](C)O (stereo partly drawn) [Compound 103] |  | 1.2 |  |  | 
5 | RRLHSTRNYIH [Compound 2] | −24.90 |  | 1.9 |  | 
6 | RETNAGRSDTRQQYRKLLKS [Compound 51] |  | 12.45 |  |  | 
7 | TNAGRSDTRQQYAKLL [Compound 91] | 9.80 |  | 2 |  | 
8 | Pal-TNAGRSATRQQYRKLL-amide (Palmitoyl-TNAGRSATRQQYRKLL-NH2; SMILES CCCCCCCCCCCCCCCC(=O)N[C@H](C(=O)N[C@@H](CC(N)=O)C(=O)N[C@@H](C)C(=O)NCC(=O)N[C@@H](CCCNC(=N)N)C(=O)N[C@@H](CO)C(=O)N[C@@H](C)C(=O)N[C@H](C(=O)N[C@@H](CCCNC(=N)N)C(=O)N[C@@H](CCC(N)=O)C(=O)N[C@@H](CCC(N)=O)C(=O)N[C@@H](Cc1ccc(O)cc1)C(=O)N[C@@H](CCCNC(=N)N)C(=O)N[C@@H](CCCCN)C(=O)N[C@@H](CC(C)C)C(=O)N[C@@H](CC(C)C)C(N)=O)[C@@H](C)O)[C@@H](C)O) [Compound 82] | −21.60 |  | 23.4 |  | 
9 | RRLHSTRNYIHMHL [Compound 16] |  | 2.45 |  |  | 
10 | TNAARSDTRQQYRKLL [Compound 80] | 0.80 |  | 2.3 |  | 
11 | TNAGRSDTRQQYRKLL [Compound 68] |  | 12.36 |  |  | 
12 | TNAGASDTRQQYRKLL [Compound 76] | 2.40 |  | 16.9 |  | 
13 | AGRSDTRQQYRKLLFS [Compound 95] | −5.70 |  | 19 |  | 
14 | TNAGRSDTRQQYRKAL [Compound 89] | −20.40 |  | 2.3 |  | 
15 | GSYFRRLHSTRNYIH [Compound 11] | 19.80 |  | 1.1 |  | 
16 | AGRSDTRQQYRKLLKS [Compound 65] |  | 14.65 |  |  | 
17 | TNAGRSDTRQQARKLL [Compound 92] | 8.30 |  | 5 |  | 
18 | TNAGRSDTRQAYRKLL [Compound 93] | −67.00 |  | 13.4 |  | 

Row | Molecule | Inhibition of Maximal Response (PTHR1 [1]) [%] | Fold Shift of EC50 (PTHR1 [2]) | Fold Shift of EC50 (PTHR1 [1]) | Fold Shift of EC50 (PTHR1 receptor) [fold] | Inhibition of Maximal Response (PTHR1 receptor)
19 | SSYFRRLHSTRNYIH [Compound 12] | 26.60 |  | 0.9 |  | 
20 | TNAGRSDTRQQYRALL [Compound 90] | 21.00 |  | 2 |  | 
21 | RETNAGRSDTRQQYRKLLFS [Compound 58] |  | 17.74 |  |  | 
22 | TNAGRSDTRAQYRKLL [Compound 81] | −20.80 |  | 13.8 |  | 
23 | CCCCCCCCCCCCCCCC(=O)N[C@@H](CC(N)=O)C(=O)NCC(=O)N[C@@H](CCC(=O)O)C(=O)N[C@H](C(=O)N[C@@H](CCC(N)=O)C(=O)N[C@@H](C)C(=O)N[C@@H](CCC(=O)O)C(=O)N[C@H](C(=O)N[C@@H](CCCCN)C(=O)N[C@@H](CCCCN)C(=O)N[C@@H](CO)C(=O)N[C@@H](Cc1c[nH]c2ccccc12)C(N)=O)[C@@H](C)CC)C(C)C [Compound 99] (Palmitoyl-NGEVQAEIKKSW-NH2) |  | 1 |  |  | 
24 | LYLHSLIFMSFFSEKK [Compound 40] | 28.30 |  | 1.5 |  | 
25 | LAYFRRLHSTRNY [Compound 3] | −51.40 |  | 0.7 |  | 
26 | TNAGRSDTRQQYRKLLFS [Compound 85] | 19.50 |  | 6.9 |  | 
27 | LYLHSLIFMAFFSEKKYLWGFT [Compound 34] | 4.20 |  | 1.2 |  | 
28 | TNAGRSDARQQYRKLL [Compound 79] | 1.20 |  | 7.2 |  | 
29 | B1 |  |  |  | 16.4 | -39%
30 | B2 |  |  |  | 14.7 | -0.359
31 | B3 |  |  |  | 6 | 6.9%
32 | B4 |  |  |  | 5.2 | 2.5%
33 | B5 |  |  |  | 0.8 | 13.5%
34 | B6 |  |  |  | 12.4 | -0.0684
35 | B7 |  |  |  | 2 | 15.1%
